What was measured:
[1] = target: T1, human FcγRIIIaV extracellular domain, His-tagged (human, UniProt P08637 17-208); test: SPR (Biacore), 25C, FcgR bound per antibody captured
T1 construct: also called human FcgRIIIaV

[2] = target: T2, human FcγRIIaR extracellular domain, His-tagged (human, UniProt P12318 34-217); test: as above
T2 construct: also called human FcgRIIaR; FcγRIIa type R
T2 chain: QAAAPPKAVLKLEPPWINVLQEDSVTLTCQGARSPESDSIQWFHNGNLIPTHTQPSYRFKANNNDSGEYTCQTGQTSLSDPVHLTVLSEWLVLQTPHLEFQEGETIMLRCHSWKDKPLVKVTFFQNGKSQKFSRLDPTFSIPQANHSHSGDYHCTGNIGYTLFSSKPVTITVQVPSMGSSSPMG

[3] = target: T3, human FcγRIIaH extracellular domain, His-tagged (human, UniProt P12318 34-217); test: as above
T3 construct: also called human FcgRIIaH; FcγRIIa type H
T3 sequence: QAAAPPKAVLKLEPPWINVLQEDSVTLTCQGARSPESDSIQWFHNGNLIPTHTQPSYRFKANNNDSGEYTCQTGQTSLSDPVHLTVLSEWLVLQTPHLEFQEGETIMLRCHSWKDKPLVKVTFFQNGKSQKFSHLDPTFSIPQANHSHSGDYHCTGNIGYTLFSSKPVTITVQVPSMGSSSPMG

[4] = target: T4, human FcγRIIb extracellular domain, His-tagged (human, UniProt P31994 43-217); test: as above
T4 construct: also called human FcgRIIb
T4 sequence: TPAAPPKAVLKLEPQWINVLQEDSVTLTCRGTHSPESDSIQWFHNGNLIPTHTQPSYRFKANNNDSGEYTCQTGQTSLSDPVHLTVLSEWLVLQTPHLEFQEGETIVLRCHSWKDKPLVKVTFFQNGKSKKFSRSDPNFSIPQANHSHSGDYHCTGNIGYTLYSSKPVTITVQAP

[5] = target: T5, cynomolgus monkey FcγRIIIaS extracellular domain with C-terminal His-tag (cynomolgus monkey, UniProt A3RFZ7 21-206 (rhesus entry)); test: SPR (BIACORE), antibody captured, FcgR analyte
T5 construct: also called cyno FcgRIIIaS; cynoFcγRIIIaS; not shown: His-tag added to the C-terminus

[6] = target: T6, cynomolgus monkey FcγRIIa3 extracellular domain with C-terminal His-tag (cynomolgus monkey); test: SPR (BIACORE), antibody captured, FcgR analyte
T6 construct: also called cyno FcgRIIa3; cynoFcγRIIa3; not shown: His-tag added to the C-terminus
T6 chain: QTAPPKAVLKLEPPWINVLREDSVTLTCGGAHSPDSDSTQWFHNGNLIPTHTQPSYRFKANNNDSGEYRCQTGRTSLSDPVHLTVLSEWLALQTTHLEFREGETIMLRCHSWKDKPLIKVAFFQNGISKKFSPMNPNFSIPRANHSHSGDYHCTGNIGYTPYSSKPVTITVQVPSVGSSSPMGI

[7] = target: T7, human FcγRIIaR extracellular domain with C-terminal His-tag (human, UniProt P12318 34-217); test: SPR (BIACORE), antibody captured, FcgR analyte
T7 construct: also called human FcgRIIaR; FcγRIIa type R; not shown: His-tag added to the C-terminus
T7 chain: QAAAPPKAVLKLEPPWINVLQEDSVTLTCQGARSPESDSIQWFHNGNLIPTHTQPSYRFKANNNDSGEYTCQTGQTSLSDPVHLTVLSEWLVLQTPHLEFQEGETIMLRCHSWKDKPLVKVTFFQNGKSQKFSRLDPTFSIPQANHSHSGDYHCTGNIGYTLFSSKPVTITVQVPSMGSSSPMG

[8] = target: T8, cynomolgus monkey FcγRIIa1 extracellular domain with C-terminal His-tag (cynomolgus monkey); test: SPR (BIACORE), antibody captured, FcgR analyte
T8 construct: also called cyno FcgRIIa1; cynoFcγRIIa1; not shown: His-tag added to the C-terminus
T8 chain: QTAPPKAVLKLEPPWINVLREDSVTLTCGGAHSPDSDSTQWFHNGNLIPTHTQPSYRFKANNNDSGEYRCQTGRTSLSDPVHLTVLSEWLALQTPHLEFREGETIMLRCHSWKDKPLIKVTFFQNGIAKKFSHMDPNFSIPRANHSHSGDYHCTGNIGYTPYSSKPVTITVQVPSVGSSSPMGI

T1 sequence (P08637 17-208 F176V): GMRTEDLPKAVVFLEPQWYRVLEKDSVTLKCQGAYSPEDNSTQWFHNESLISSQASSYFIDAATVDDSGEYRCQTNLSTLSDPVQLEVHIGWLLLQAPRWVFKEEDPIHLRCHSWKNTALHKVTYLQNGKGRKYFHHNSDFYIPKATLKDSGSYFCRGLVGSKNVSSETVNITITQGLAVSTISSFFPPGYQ
T5 sequence (A3RFZ7 21-206): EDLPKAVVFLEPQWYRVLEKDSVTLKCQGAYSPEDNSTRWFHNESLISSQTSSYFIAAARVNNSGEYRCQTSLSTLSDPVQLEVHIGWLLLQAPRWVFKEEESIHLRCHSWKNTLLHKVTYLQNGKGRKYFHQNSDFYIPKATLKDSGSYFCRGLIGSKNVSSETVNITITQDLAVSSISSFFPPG

Row | Binder | Binding to human FcgRs (parent B3 = 100) [1] | Binding to human FcgRs (parent B3 = 100) [2] | Binding to human FcgRs (parent B3 = 100) [3] | Binding to human FcgRs (parent B3 = 100) [4] | Kd [5] | Kd [6] | Kd [7] | Kd [8]
1 | GpH7-B3 S267H / GpL16-k0 (antibody, human IgG1, kappa, also called B3 variant S267H) heavy: not shown light: DIVMTQSPLSLPVTPGEPASISCQASESLVHSNRNTYLHWYLQKPGQSPQLLIYKVSNRFSGVPDRFSGSGSGTDFTLKISRVEAEDVGVYYCSQNTHVPPTFGQGTKVEIERTVAAPSVFIFPPSDEQLKSGTASVVCLLNNFYPREAKVQWKVDNALQSGNSQESVTEQDSKDSTYSLSSTLTLSKADYEKHKVYACEVTHQGLSSPVTKSFNRGEC | 1 | 3 | 27 | 42 | – | – | – | –
2 | GpH7-B3 S267L / GpL16-k0 (antibody, human IgG1, kappa, also called B3 variant S267L) heavy: not shown light: DIVMTQSPLSLPVTPGEPASISCQASESLVHSNRNTYLHWYLQKPGQSPQLLIYKVSNRFSGVPDRFSGSGSGTDFTLKISRVEAEDVGVYYCSQNTHVPPTFGQGTKVEIERTVAAPSVFIFPPSDEQLKSGTASVVCLLNNFYPREAKVQWKVDNALQSGNSQESVTEQDSKDSTYSLSSTLTLSKADYEKHKVYACEVTHQGLSSPVTKSFNRGEC | 2 | 3 | 63 | 112 | – | – | – | –
3 | M103205H795-MY289/M103202L889-SK1 (antibody, human IgG1, kappa, name in EU numbering, Fc variant of MS1032LO06-SG1; positions in EU numbering) heavy: QVTLKESGPVLVKPTETLTLTCTVSGIDLSHDDISWVRQAPGKGLEWVGIISYAGSTYYASWAKGRLTISKDTSKNQVVLTMTNMDPVDTATYYCARGVPAYSHGGDLWGQGTLVTVSSASTKGPSVFPLAPSSKSTSGGTAALGCLVKDYFPEPVTVSWNSGALTSGVHTFPAVLQSSGLYSLSSVVTVPSSSLGTQTYICNVNHKPSNTKVDKKVEPKSCDKTHTCPPCPAPELLNGPSVFLFPPKPKDTLMISRTPEVTCVVVDVSHEDPEVKFNWYVDGVEVHNAKTKPREEQYNSTYRVVSVLTVLHQDWLNGKEYKCKVSNKALPKPIEKTISKAKGQPREPQVYTLPPSREEMTKNQVSLTCLVKGFYPSDIAVEWESNGQPENNYKTTPMVLDSDGSFFLYSKLTVDKSRWQQGNVFSCSVMHEALHNHYTQKSLSLSP light: DIVMTQSPATLSLSPGERATLSCTSSQSVYHANWLSWFQQKPGQPPKLLIYWASTLAYGVPSRFSGSGSGTDFTLTISSLQPEDAATYYCAGGYGGGRYAFGQGTKVEIKRTVAAPSVFIFPPSDEQLKSGTASVVCLLNNFYPREAKVQWKVDNALQSGNSQESVTEQDSKDSTYSLSSTLTLSKADYEKHKVYACEVTHQGLSSPVTKSFNRGEC | – | – | – | – | 5.2 µM | 8.6 µM | 3.5 µM | 1.5 µM

From US20250076311A1 (Chugai, published 2025)
